From US20210388082A1 (NEWBIO THERAPEUTICS, published 2021)

T1: CD79b on the surface of human lymphoma cell lines (human, UniProt P40259 29-229)
T1 sequence (looked up): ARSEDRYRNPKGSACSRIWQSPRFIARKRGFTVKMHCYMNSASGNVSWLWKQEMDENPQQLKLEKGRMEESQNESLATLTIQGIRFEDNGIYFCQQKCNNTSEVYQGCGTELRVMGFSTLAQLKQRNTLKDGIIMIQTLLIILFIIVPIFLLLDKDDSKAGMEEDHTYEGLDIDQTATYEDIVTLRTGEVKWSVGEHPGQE

T2: recombinant human CD79b extracellular domain protein (human, UniProt P40259 29-159)
T2 construct: Bought protein; also called CD79b ECD; human CD79b-ECD
T2 sequence: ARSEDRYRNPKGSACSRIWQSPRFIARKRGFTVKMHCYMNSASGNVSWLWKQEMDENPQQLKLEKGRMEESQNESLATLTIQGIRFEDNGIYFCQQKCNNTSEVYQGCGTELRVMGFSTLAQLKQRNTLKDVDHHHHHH


Legend:
[1] = target: T1, CD79b on the surface of human lymphoma …; assay: cell-based or functional assay
[2] = target: T1, CD79b on the surface of human lymphoma …; assay: cell-based or functional assay; remark: listed apart in the source
[3] = target: T1, CD79b on the surface of human lymphoma …; assay: cell-based or functional assay; remark: listed apart in the source
[4] = target: T2, recombinant human CD79b extracellular …; assay: ELISA, plate coated with human CD79b-ECD
Procedure: (§1) The experimental procedure was as follows: 96-well plates (Corning, CAT #9018) were coated with 100 μL/well of antigen (human CD79b-ECD, novoprotein, CA29) at 1 μg/mL in PBS (10 mM phosphate, 138 mM NaCl, pH 7.2) at 4° C. overnight, and then blocked with 250 ul/well of blocking solution (PBS+1% BSA (Sangon, CAT #A0332)) for one to three hours at 25° C. Plates were washed 3 times with a washing solution (PBS+0.05% Tween-20 (Sangon, CAT #TB0560)), and then incubated with 100 μL of anti-CD79b antibody in serial dilutions in blocking solution in duplicate wells at 25° C. for 2 h. Plates were washed 3 times with washing solution and then incubated with 100 μL of 1:10,000 the secondary antibody (anti-mouse IgG (Fc)-HRP, Sigma, CAT #A00168 or anti-human IgG F(ab′)2-HRP, Sigma, CAT #A0293) at 25° C. for 1 h. Plates were washed 3 times with washing solution, and then 100 μL of TMB (Sangon, CAT #TB0954) was added to each well and incubated at 25° C. until color developed (approximately 15 min). Reactions were stopped by addition of 100 μl/well stop solution (1N H2SO4). OD450/630 nm was read on plate reader in 10 minutes.

[5] = target: T2, recombinant human CD79b extracellular …; assay: SPR (Biacore T200), antibody on CM5 chip, CD79b ECD as analyte, 25 C
Procedure: The assay was performed on a Biacore T200 (GE) machine, and the antibody to be tested was diluted to 10 ug/ml with HBS-EP (GE, BR100826) buffer according to the instruction of Amine-Coupling Kit (GE, BR-1000-50). The antibody to be tested was immobilized on a CM5 chip (GE, BR-1006-68) at a fixing time of 300 sec and a flow rate of 10 ul/min. Different concentrations (0.25 nm, 0.5 nm, 1 nm, 2 nm, 4 nm, 8 (×2) nm, 16 nm) of the recombinant CD79b extracellular domain protein diluted with HBS buffer gradient was subjected to capture reaction by Kinetics program, with the binding time of the antigen-antibody set to 300 seconds, dissociation time set to 900 seconds, flow rate of the antigenic protein to 30 ul/min. The dissociation curves were fitted to calculate the KD values of the different antibodies. The above experiments were all carried out at 25° C.
The affinity of the antibody after humanization was tested by the method described in Section 4 of the “Materials and Methods” section.

[6] = target: T2, recombinant human CD79b extracellular …; assay: indirect ELISA, plate coated with CD79b antigen
Procedure: An ELISA anti-antibody was added to bind with the antibody or ADC antibody bound to the solid phase antigen, and unbound anti-antibody was removed by washing. Substrate solution was added, and then the optical density (OD) value at 450 nm/630 nm was read with a microplate reader T, based on which a curve was plotted, and the EC₅₀ was calculated.

[7] = target: T2, recombinant human CD79b extracellular …; assay: ELISA, plate coated with human CD79b-ECD; remark: listed apart in the source
Procedure: as §1
The in vitro binding activity of the anti-CD79b humanized antibody to the extracellular domain of human CD79b was examined by ELISA as described in Section 1 of the Materials and Methods section.

Kd [5] [pM] | koff [5] [s⁻¹] | kon [5] [M⁻¹ s⁻¹] | EC50 [7] [µg/mL] | Binder | other results
– | – | – | – | recombinant chimeric antibody 104E1 conjugated to BMP-vcMMAE (other, antibody conjugated to BMP-vcMMAE (linker-drug 1); positions not given) VH: QVQLQQSGSELARPGASVKLSCKTSGNTFTSYGINWVKQRTGQGLEWIGEIFPRSGNIYYNEKFKGKATLTADKSSSTAYMELRSLTSEDSAVYFCAKGGTGDFDYWGQGTTLTVSS VL: DVLMTQTPLSLPVSLGDQASISCRSSQNIVHSDGNTYLEWYLQKPGQSPKLLIYKVSFRLSGVPDRFSGSGSGTDFTLKIRRVEAEDLGTYYCFQGSHVPWTFGGGTKLEIK | Inhibitory effect on the lymphoma cell proliferation IC50, BJAB [1]: 0.00881 µg/mL; Inhibitory effect on the lymphoma cell proliferation IC50, DoHH2 [1]: 0.00426 µg/mL; Inhibitory effect on the lymphoma cell proliferation IC50, Granta-519 [1]: 0.0296 µg/mL; Inhibitory effect on the lymphoma cell proliferation IC50, Ramos [1]: 0.00442 µg/mL; Inhibitory effect on the lymphoma cell proliferation IC50, SU_DHL-4 [1]: 0.00946 µg/mL; Inhibitory effect on the lymphoma cell proliferation IC50, U-698-M [1]: 0.0159 µg/mL; Inhibitory effect on the lymphoma cell proliferation IC50, WSU-DLCL2 [1]: 0.0168 µg/mL; Inhibitory activity on lymphoma cell proliferation IC50, BJAB [2]: 0.0104 µg/mL; Inhibitory activity on lymphoma cell proliferation IC50, DoHH2 [2]: 0.00575 µg/mL; Inhibitory activity on lymphoma cell proliferation IC50, Granta-519 [2]: 0.0208 µg/mL; Inhibitory activity on lymphoma cell proliferation IC50, Ramos [2]: 0.00602 µg/mL; Inhibitory activity on lymphoma cell proliferation IC50, SU-DHL-4 [2]: 0.0119 µg/mL; Inhibitory activity on lymphoma cell proliferation IC50, U-698-M [2]: 0.00952 µg/mL; Inhibitory activity on lymphoma cell proliferation IC50, WSU-DLCL2 [2]: 0.0182 µg/mL
– | – | – | – | murine anti-CD79b monoclonal antibody 104E1 (antibody, V domains shown, Mouse hybridoma antibody, tested as supernatant; also called murine antibody 104E1) VH: QVQLQQSGSELARPGASVKLSCKTSGNTFTSYGINWVKQRTGQGLEWIGEIFPRSGNIYYNEKFKGKATLTADKSSSTAYMELRSLTSEDSAVYFCAKGGTGDFDYWGQGTTLTVSS VL: DVLMTQTPLSLPVSLGDQASISCRSSQNIVHSDGNTYLEWYLQKPGQSPKLLIYKVSFRLSGVPDRFSGSGSGTDFTLKIRRVEAEDLGTYYCFQGSHVPWTFGGGTKLEIK | IC50 against BJAB (secondary ADC assay with HB58-ADC) [3]: 0.0093 µg/mL; EC50 [4]: 0.0149 µg/mL
34.1 | 5.52e-05 | 1.62e+06 | – | recombinant human-mouse chimeric antibody 104E1 (antibody, V domains shown, also called chimeric 104E1) VH: QVQLQQSGSELARPGASVKLSCKTSGNTFTSYGINWVKQRTGQGLEWIGEIFPRSGNIYYNEKFKGKATLTADKSSSTAYMELRSLTSEDSAVYFCAKGGTGDFDYWGQGTTLTVSS VL: DVLMTQTPLSLPVSLGDQASISCRSSQNIVHSDGNTYLEWYLQKPGQSPKLLIYKVSFRLSGVPDRFSGSGSGTDFTLKIRRVEAEDLGTYYCFQGSHVPWTFGGGTKLEIK | –
21.6 | 3.63e-05 | 1.68e+06 | 0.0583 | Humanized antibody AS11259 (antibody, human IgG1, kappa, Humanized IgG1 / kappa; also called naked antibody AS11259) heavy: not shown light: DVVMTQSPLSLPVTLGQPASISCRSSQNIVHSDGNTYLEWYQQRPGQSPRLLIYKVSFRLSGVPDRFSGSGSGTDFTLKISRVEAEDVGVYYCFQGSHVPWTFGGGTKVEIKRTVAAPSVFIFPPSDEQLKSGTASVVCLLNNFYPREAKVQWKVDNALQSGNSQESVTEQDSKDSTYSLSSTLTLSKADYEKHKVYACEVTHQGLSSPVTKSFNRGEC | EC50 [6]: 0.0178 µg/mL
28.5 | 4.22e-05 | 1.48e+06 | 0.0499 | Humanized antibody AS11252 (antibody, human IgG1, kappa, Humanized IgG1 / kappa) heavy: not shown light: DVVMTQSPLSLPVTLGQPASISCRSSQNIVHSDGNTYLEWYQQRPGQSPRLLIYKVSFRLSGVPDRFSGSGSGTDFTLKISRVEAEDVGVYYCFQGSHVPWTFGGGTKVEIKRTVAAPSVFIFPPSDEQLKSGTASVVCLLNNFYPREAKVQWKVDNALQSGNSQESVTEQDSKDSTYSLSSTLTLSKADYEKHKVYACEVTHQGLSSPVTKSFNRGEC | –
14 | 2.84e-05 | 2.02e+06 | 0.0431 | Humanized antibody AS11161 (antibody, human IgG1, kappa, V domains shown, Humanized IgG1 / kappa) VH: QVQLVQSGAEVKKPGSSVKVSCKTSGNTFTSYGINWVRQAPGQGLEWMGEIFPRSGNIYYNEKFKGKVTITADKSTSTAYMELSSLRSEDTAVYYCAKGGTGDFDYWGQGTLVTVSS VL: DVVMTQSPLSLPVTLGQPASISCRSSQNIVHSDGNTYLEWYQQRPGQSPRLLIYKVSFRLSGVPDRFSGSGSGTDFTLKISRVEAEDVGVYYCFQGSHVPWTFGGGTKVEIKR | –
18.7 | 2.87e-05 | 1.53e+06 | 0.0501 | Humanized antibody AS11254 (antibody, human IgG1, kappa, V domains shown, Humanized IgG1 / kappa) VH: QVQLVQSGAEVKKPGASVKVSCKTSGNTFTSYGINWVKQAPGQGLEWMGEIFPRSGNIYYNEKFKGRVTITADKSTSTAYMELSSLRSEDTAVYYCAKGGTGDFDYWGQGTLVTVSS VL: DVVMTQSPLSLPVTLGQPASISCRSSQNIVHSDGNTYLEWYQQRPGQSPRLLIYKVSFRLSGVPDRFSGSGSGTDFTLKISRVEAEDVGVYYCFQGSHVPWTFGGGTKVEIKR | –
12.8 | 2.44e-05 | 1.91e+06 | 0.064 | Humanized antibody AS11164 (antibody, human IgG1, kappa, V domains shown, Humanized IgG1 / kappa) VH: QVQLVQSGAEVKKPGSSVKVSCKTSGNTFTSYGINWVRQAPGQGLEWMGEIFPRSGNIYYNEKFKGKVTITADKSTSTAYMELSSLRSEDTAVYYCAKGGTGDFDYWGQGTLVTVSS VL: DVLMTQSPLSLPVTLGQPASISCRSSQNIVHSDGNTYLEWYQQRPGQSPKLLIYKVSFRLSGVPDRFSGSGSGTDFTLKISRVEAEDVGVYYCFQGSHVPWTFGGGTKVEIKR | –
